Results on four molecules are retold here after US20240092935A1 (BETH ISRAEL DEACONESS MEDICAL CENTER, published 2024).

The Kd is the equilibrium constant for the complex coming apart.

GalNAc = N-acetylgalactosamine

Assay [1] has as its target T1, a-Dystroglycan peptide Ac-PPTTTTKKP-NH2 (chart ID 9).
T1 peptide: Ac-PPTTTTKKP-NH2
Put plainly: Tn glycopeptide microarray, Alexa Fluor 488 goat anti-mouse IgM. The procedure: (§1) The Tn glycopeptide microarray was prepared as previously described (25). The Consortium for Functional Glycomics (CFG) glycan microarray version 5.0 was used (www.functionalglycomics.org) (26). […] Slides were washed four times with TSM wash buffer 1 (20 mM Tris-HCl, pH 7.4, 150 mM NaCl, 2 mM CaCl₂), 2 mM MgCl2 and 0.05% Tween-20), and washed four times with TSM wash buffer 2 (20 mM Tris-HCl, pH 7.4, 150 mM NaCl, 2 mM CaCl2) and 2 mM MgCl2). Alexa Fluor® 488-labeled goat anti-human IgG or goat anti-mouse IgM secondary (diluted to 5 μg/ml) were used for detection. After washing as above, slides were washed once in water and dried before being read on a Genepix® 4300A microarray scanner (Molecular Devices). Images were analyzed with quantitation software (GenePix® Pro Microarray Analysis Software Ver. 7, Molecular Devices).

Assay [2] deals with T2, MUC1-1R peptide H2N-TSAPDTRDAP-NH2 (chart ID 15).
T2 peptide: H-TSAPDTRDAP-NH2
Described as above. The method, then: as §1

For assay [3], the target named is T3, Peptide-4 H2N-KTTT-CONH2 (chart ID 21).
T3 peptide: H-KTTT-NH2
The assay is described as above. The procedure:
as §1

The target in assay [4] is T4, MUC1-1 glycopeptide H2N-TSAPDT*RDAP-NH2 (chart ID 14).
T4 peptide: H-TSAPDT(GalNAc)RDAP-NH2
Described as above. The method, then: as §1

For assay [5], the target named is T5, a-Dystroglycan glycopeptide Ac-PPT*T*T*T*KKP-HN2 (chart ID 13).
T5 peptide: Ac-PPT(GalNAc)T(GalNAc)T(GalNAc)T(GalNAc)KKP-NH2
Described as above. The method, then: as §1

Assay [6] concerns the target T6, Peptide-5 H2N-KTTTG-CONH2 (chart ID 22).
T6 peptide: H-KTTTG-NH2
The description is as above. The procedure: as §1

Assay [7] addresses T7, Asialo-BSM (desialylated bovine submaxillary mucin) (bovine).
T7 construct: also called desialylated BSM; Asialo-BSM beads
The assay is described as follows: plate binding assay, Asialo-BSM coated on 96-well plate, serial dilution of antibody, fluorescent secondary antibody.

The target in assay [8] is T1, a-Dystroglycan peptide Ac-PPTTTTKKP-NH2 …. Put plainly: Tn glycopeptide microarray, Alexa Fluor 488 goat anti-human IgG. The procedure:
as §1

Assay [9] concerns the target T2, MUC1-1R peptide H2N-TSAPDTRDAP-NH2 …. The description is as above. The method, then: as §1
The target of assay [10] is T8, EA2 glycopeptide Ac-PTTDSTT*PAPTTK-NH2 (chart ID 11).
T8 peptide: Ac-PTTDSTT(GalNAc)PAPTTK-NH2
The description is as above. The method, then: as §1

Assay [11] has as its target T9, MUC5AC glycopeptide H2N-GTTPSPVPT*TSTTSAP-OH (chart ID 10).
T9 peptide: H-GTTPSPVPT(GalNAc)TSTTSAP-OH
Described as above. The method, then:
as §1

Assay [12] addresses T10, EA2-R peptide Ac-PTTDSTTPAPTTK-NH2 (chart ID 12).
T10 peptide: Ac-PTTDSTTPAPTTK-NH2
The description is as above. The procedure: as §1

Assay [13] has as its target T3, Peptide-4 H2N-KTTT-CONH2 (chart ID 21). The assay is described as above. The procedure:
as §1

The target of assay [14] is T4, MUC1-1 glycopeptide H2N-TSAPDT*RDAP-NH2 …. The assay is described as above. The method, then: as §1
The target in assay [15] is T5, a-Dystroglycan glycopeptide …. The assay is described as above. The procedure: as §1
In assay [16] the target is T6, Peptide-5 H2N-KTTTG-CONH2 (chart ID 22). The description is as above. The procedure: as §1
Assay [17] addresses T11, A-MUC2 glycopeptide Ac-PT*TTPLK-NH2 (chart ID 1).
T11 peptide: Ac-PT(GalNAc)TTPLK-NH2
The assay is described as follows: Tn glycopeptide microarray probed with biotinylated PNA and Alexa488-streptavidin.

The target in assay [18] is T12, C-MUC2 glycopeptide Ac-PTTT*PLK-NH2 (chart ID 3).
T12 peptide: Ac-PTTT(GalNAc)PLK-NH2
The assay is described as above.

The target of assay [19] is T13, D-MUC2 glycopeptide Ac-PT*T*TPLK-NH2 (chart ID 4).
T13 peptide: Ac-PT(GalNAc)T(GalNAc)TPLK-NH2
The description is as above.

Assay [20] addresses T14, F-MUC2 glycopeptide Ac-PTT*T*PLK-NH2 (chart ID 6).
T14 construct: also called double-Tn-MUC2; bar label T*T*
T14 peptide: Ac-PTT(GalNAc)T(GalNAc)PLK-NH2
The assay is described as above.

Assay [21] has as its target T15, B-MUC2 glycopeptide Ac-PTT*TPLK-NH2 (chart ID 2).
T15 peptide: Ac-PTT(GalNAc)TPLK-NH2
The description is as above.

Assay [22] deals with T8, EA2 glycopeptide Ac-PTTDSTT*PAPTTK-NH2 …. The assay is described as follows: Tn glycopeptide microarray, Alexa Fluor 488 goat anti-mouse IgM. The procedure: as §1
For assay [23], the target named is T9, MUC5AC glycopeptide …. Described as above. The procedure:
as §1

For assay [24], the target named is T10, EA2-R peptide Ac-PTTDSTTPAPTTK-NH2 …. The assay is described as above. The procedure:
as §1

B1: ReBaGs6, recombinant murine IgM anti-Tn antibody (antibody)
heavy: DTMLQQSDAELVKPGASVKMSCKASGYTFTDHAIHWVKQKPEQGLEWIGYVSPGNGDIKYNEKFKGKATLSADKSSSTAYMQLNSLTSEDSAVYFCKRSYGSFDYWGQGTTLTVSSESQSFPNVFPLVSCESPLSDKNLVAMGCLARDFLPSTISFTWNYQNNTEVIQGIRTFPTLRTGGKYLATSQVLLSPKSILEGSDEYLVCKIHYGGKNRDLHVPIPAVAEMNPNVNVFVPPRDGFSGPAPRKSKLICEATNFTPKPITVSWLKDGKLVESGFTTDPVTIENKGSTPQTYKVISTLTISEIDWLNLNVYTCRVDHRGLTFLKNVSSTCAASPSTDILTFTIPPSFADIFLSKSANLTCLVSNLATYETLNISWASQSGEPLETKIKIMESHPNGTFSAKGVASVCVEDWNNRKEFVCTVTHRDLPSPQKKFISKPNEVHKHPPAVYLLPPAREQLNLRESATVTCLVKGFSPADISVQWLQRGQLLPQEKYVTSAPMPEPGAPGFYFTHSILTVTEEEWNSGETYTCVVGHEALPHLVTERTVDKSTGKPTLYNVSLIMSDTGGTCY
light: QIVLTQSPAIMSSSPGEKVALSCSASSSVSYVYWYQQKPGSSPKPWIYRTSNLASGVPARFSGSGSGTSYSLTISSMEAEDAATYYCQQYHSYPFTFGSGTKLEIKRADAAPTVSIFPPSSEQLTSGGASVVCFLNNFYPKDINVKWKIDGSERQNGVLNSWTDQDSKDSTYSMSSTLTLTKDEYERHNSYTCEATHKTSTSPIVKSFNRNEC
notes: Mouse IgM (mu heavy chain, kappa light chain); also called ReGs6; mIgM
With B1, the binding result in assay [1], in assay [2], in assay [3], in assay [4], in assay [5] and in [6] was “no binding (tested: 20 or 2 µg/ml (text paragraph 261))” throughout. For the same molecule, the affinity in assay [7], expressed as Kd, was 54.3 nM.

B2: Remab6, recombinant human chimeric IgG1 anti-Tn antibody (antibody)
heavy: not shown
light: QIVLTQSPAIMSSSPGEKVALSCSASSSVSYVYWYQQKPGSSPKPWIYRTSNLASGVPARFSGSGSGTSYSLTISSMEAEDAATYYCQQYHSYPFTFGSGTKLEIKRTVAAPSVFIFPPSDEQLKSGTASVVCLLNNFYPREAKVQWKVDNALQSGNSQESVTEQDSKDSTYSLSSTLTLSKADYEKHKVYACEVTHQGLSSPVTKSFNRGEC
notes: Mouse variable regions engineered from BaGs6 with human IgG1 and kappa constant regions; expressed in HEK293 Freestyle cells; also called Remab6-WT; hIgG1
In assay [7], B2 returned a Kd of 829 nM. In addition, the binding result in [8], in assay [9], in assay [10], in assay [11], in [12] and in [13] was “no binding (tested: 5 µg/ml (text paragraph 261))” each time. Further, the binding result in [14], in assay [15] and in assay [16] was “no binding (tested: 5 µg/ml (text paragraph 261))” each time.

B3: PNA (other)
chain: AETVSFNFNSFSEGNPAINFQGDVTVLSNGNIQLTNLNKVNSVGRVLYAMPVRIWSSATGNVASFLTSFSFEMKDIKDYDPADGIIFFIAPEDTQIPAGSIGGGTLGVSDTKGAGHFVGVEFDTYSNSEYNDPPTDHVGIDVNSVDSVKTVPWNSVSGAVVKVTVIYDSSTKTLSVAVTNDNGDITTIAQVVDLKAKLPERVKFGFSASGSLGGRQIHLIRSWSFTSTLITTTRRSIDNNEKKIMNMASA
modifications: Biotinylated at unspecified positions. The native lectin is a homotetramer; one subunit is given.
notes: also called biotinylated PNA; Peanut agglutinin
Take B3: the binding result in assay [17], in assay [18], in [19], in assay [20] and in assay [21] was “no binding” throughout.

B4: BaGs6, murine IgM anti-Tn monoclonal antibody from mouse ascites (antibody, V domains shown)
VH: DTMLQQSDAELVKPGASVKMSCKASGYTFTDHAIHWVKQKPEQGLEWIGYVSPGNGDIKYNEKFKGKATLSADKSSSTAYMQLNSLTSEDSAVYFCKRSYGSFDYWGQGTTLTVSS
VL: QIVLTQSPAIMSSSPGEKVALSCSASSSVSYVYWYQQKPGSSPKPWIYRTSNLASGVPARFSGSGSGTSYSLTISSMEAEDAATYYCQQYHSYPFTFGSGTKLEIKR
notes: Natural mouse IgM used as ascites fluid; also called Ca3638; anti-Tn ascites
On to B4, for which the binding result in assay [2], in [22], in assay [23], in assay [24], in assay [3] and in [4] was “no binding (tested: 1:200 dilution (text paragraph 261))” throughout. In addition, the binding result in assay [5] and in [6] was “no binding (tested: 1:200 dilution (text paragraph 261))” each time.
